Where no end group is shown, it is not given here.
B1: anti-IL-6 scFv (scFv, V domains shown)
VH: QVQLVESGGGLVQPGGSLRLSCAASGFNFNDYFMNWVRQAPGKGLEWVAQMRNKNYQYGTYYAESLEGRFTISRDDSKNSLYLQMNSLKTEDTAVYYCARESYYGFTSYWGQGTLVTVSG
VL: GIQMTQSPSSLSASVGDRVTITCQASQDIGISLSWYQQKPGKAPKLLIYNANNLADGVPSRFSGSGSGTDFTLTISSLQPEDFATYYCLQHNSAPYTFGQGTKLETG
B2: anti-IL-6 Fab (Fab, V domains shown)
VH: EVQLQESGPGLVKPSQTLSLTCTVSGGSITTRYYAWSWIRQPPGKGLEWMGVIDYDGDTYYSPSLKSRTSISWDTSKNQFSLQLSSVTPEDTAVYYCARDPDVVTGFHYDYWGQGTQVTVSS
VL: QAVLTQPPLVSGTPGQTVTISCAGANNDIGTYAYVSWYQQLPGTAPKLLIYKVTTRASGIPSRFSGSKSGNTASLTISGLQSEDEADYYCASYRNFNNAVFGRGTHLTVL
B3: wild-type MCoTI-II fused to RGS (peptide)
peptide: SGSDGGVCPKILKKCRRDSDCPGACICRGNGYCGGAG
modifications: disulfide (positions not given here); also: three disulfides, pairing not given here, fused to RGS
notes: also called wtMCoTI-RGS; wtMCoTI
B4: anti-HSA scFv (scFv, V domains shown)
VH: EVQLLESGGGLVQPGGSLRLSCAVSGIDLSNYAINWVRQAPGKGLEWIGIIWASGTTFYATWAKGRFTISRDNSKNTVYLQMNSLRAEDTAVYYCARTVPGYSTAPYFDLWGQGTLVTVSS
VL: DIQMTQSPSSVSASVGDRVTITCQSSPSVWSNFLSWYQQKPGKAPKLLIYEASKLTSGVPSRFSGSGSGTDFTLTISSLQPEDFATYYCGGGYSSISDTTFGGGTKVEIK
B5: anti-HSA Fab (Fab, V domains shown)
VH: B4 VH
VL: B4 VL

Key:
Conditions in all cases: both partners purified
[1] = molecular target: human IL-6 (Homo sapiens, UniProt P05231); experiment: pull-down; antibody fragment captured by RGS-tag on AC-resin co- or post-translationally, washed, treated with neutral buffer or 2 M GdnHCl/100 mM DTT then 1 M GdnHCl/10 mM GSH (or fully refolded from 6 M GdnHCl); incubated with 50 uL of 10 uM antigen for 3 h at RT; washed; eluted by boiling or by PreScission cleavage; SDS-PAGE
Sequence of human IL-6 (P05231 30-212): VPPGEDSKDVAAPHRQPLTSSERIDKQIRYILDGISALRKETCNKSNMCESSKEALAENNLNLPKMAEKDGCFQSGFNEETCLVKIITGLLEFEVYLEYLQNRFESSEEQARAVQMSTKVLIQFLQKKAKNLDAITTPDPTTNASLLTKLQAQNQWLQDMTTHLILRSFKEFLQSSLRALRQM

[2] = molecular target: Trypsin (UniProt P00760 18-246); experiment: enzyme inhibition assay (trypsin-inhibitory assay); 100 pM trypsin pre-incubated with peptide (twofold dilution series from 4 nM to 3.9 pM) for 3 h at room temperature in 0.1 M NaCl, 10 mM CaCl2, 0.005% Triton X-100, 0.1 M Tris-HCl pH 8.0; residual activity on Boc-Q-A-R-AMC (10 uM); Ki from IC50 by a tight-binding equation, Km 12 uM
Sequence of Trypsin (P00760 24-246): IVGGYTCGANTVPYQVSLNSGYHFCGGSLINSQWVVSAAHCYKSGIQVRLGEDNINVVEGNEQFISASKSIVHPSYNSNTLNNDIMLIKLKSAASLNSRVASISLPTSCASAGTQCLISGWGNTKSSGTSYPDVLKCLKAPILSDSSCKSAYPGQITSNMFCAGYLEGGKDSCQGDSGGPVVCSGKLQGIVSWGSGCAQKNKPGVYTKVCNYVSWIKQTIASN

[3] = molecular target: T1, Human serum albumin (Homo sapiens, UniProt P02768); experiment: pull-down; antibody fragment captured by RGS-tag on AC-resin co- or post-translationally, washed, treated with neutral buffer or 2 M GdnHCl/100 mM DTT then 1 M GdnHCl/10 mM GSH (or fully refolded from 6 M GdnHCl); incubated with 50 uL of 10 uM antigen for 3 h at RT; washed; eluted by boiling or by PreScission cleavage; SDS-PAGE
T1 construct: also called HSA

Binder | binding result [1] | binding result [3] | also measured
B1 | binds | – | –
B2 | binds | – | –
B3 | – | – | fold Ki against prmMCoTI [2]: ~4 fold
B4 | – | binds | –
B5 | – | binds | –
